Experimental data as given in article doi:10.1101/2024.10.14.618187, “Molecular basis of interchain disulfide-bond formation in BMP-9 and BMP-10” (bioRxiv, 2024).

B1: Pro-(X)-BMP-9 [human] / itself (parent)
chain: KPLQSWGRGSAGGNAHSPLGVPGGGLPEHTFNLKMFLENVKVDFLRSLNLSGVPSQDKTRVEPPQYMIDLYNRYTSDKSTTPASNIVRSFSMEDAISITATEDFPFQKHILLFNISIPRHEQITRAELRLYVSCQNHVDPSHDLKGSVVIYDVLDGTDAWDSATETKTFLVSQDIQDEGWETLEVSSAVKRWVRSDSTKSKNKLEVTVESHRKGCDTLDISVPPGSRNLPFFVVFSNDHSSGTKETRLELREMISHEQESVLKKLSKDGSTEAGESSHEEDTDGHVAAGSTLAIEGRSSGAGSHCQKTSLRVNFEDIGWDSWIIAPKEYEAYECKGGCFFPLADDVTPTKHAIVQTLVHLKFPTKVGKACCVPTKLSPISVLYKDDMGVPTLKYHYEGMSVAECGCR

Variants of: B1
Experiment: SDS-PAGE densitometry after IMAC purification
Conditions: with itself

Compared with KPLQSWGRGSAGGNAHSPLGVPGGGLPEHTFNLKMFLENVKVDFLRSLNLSGVPSQDKTRVEPPQYMIDLYNRYTSDKSTTPASNIVRSFSMEDAISITATEDFPFQKHILLFNISIPRHEQITRAELRLYVSCQNHVDPSHDLKGSVVIYDVLDGTDAWDSATETKTFLVSQDIQDEGWETLEVSSAVKRWVRSDSTKSKNKLEVTVESHRKGCDTLDISVPPGSRNLPFFVVFSNDHSSGTKETRLELREMISHEQESVLKKLSKDGSTEAGESSHEEDTDGHVAAGSTLAIEGRSSGAGSHCQKTSLRVNFEDIGWDSWIIAPKEYEAYECKGGCFFPLADDVTPTKHAIVQTLVHLKFPTKVSKACCVPTKLSPISVLYKDDMGVPTLKYHYEGMSVAECGCR [chain 1 G367S], KPLQSWGRGSAGGNAHSPLGVPGGGLPEHTFNLKMFLENVKVDFLRSLNLSGVPSQDKTRVEPPQYMIDLYNRYTSDKSTTPASNIVRSFSMEDAISITATEDFPFQKHILLFNISIPRHEQITRAELRLYVSCQNHVDPSHDLKGSVVIYDVLDGTDAWDSATETKTFLVSQDIQDEGWETLEVSSAVKRWVRSDSTKSKNKLEVTVESHRKGCDTLDISVPPGSRNLPFFVVFSNDHSSGTKETRLELREMISHEQESVLKKLSKDGSTEAGESSHEEDTDGHVAAGSTLAIEGRSSGAGSHCQKTSLRVNFEDIGWDSWIIAPKEYEAYECRGGCFFPLADDVTPTKHAIVQTLVHLKFPTKVGKACCVPTKLSPISVLYKDDMGVPTLKYHYEGMSVAECGCR [chain 1 K335R] is lower in screen value: 1.29 for the first, 0.7 for the second.

Work on KPLQSWGRGSAGGNAHSPLGVPGGGLPEHTFNLKMFLENVKVDFLRSLNLSGVPSQDKTRVEPPQYMIDLYNRYTSDKSTTPASNIVRSFSMEDAISITATEDFPFQKHILLFNISIPRHEQITRAELRLYVSCQNHVDPSHDLKGSVVIYDVLDGTDAWDSATETKTFLVSQDIQDEGWETLEVSSAVKRWVRSDSTKSKNKLEVTVESHRKGCDTLDISVPPGSRNLPFFVVFSNDHSSGTKETRLELREMISHEQESVLKKLSKDGSTEAGESSHEEDTDGHVAAGSTLAIEGRSSGAGSHCQKTSLRVNFEDIGWDSWIIAPKEYEAYECRGGCFFPLADDVTPTKHAIVQTLVHLKFPTKVSKACCVPTKLSPISVLYKDDMGVPTLKYHYEGMSVAECGCR [chain 1 K335R G367S] yielded a screen value of 3.24.
